Experimental data from publication PMC11336900, “Nanobody‐Engineered Biohybrid Bacteria Targeting Gastrointestinal Cancers Induce Robust STING‐Mediated Anti‐Tumor Immunity” (Advanced Science, 2024).
Changes are numbered by the printed parent chain. Each block holds one binder with its values, some of them ahead of it.

Columns and labels:
[1] = target: T1, human CDH17 protein fragment, domain 1–3 (Homo sapiens, UniProt Q12864); assay: SPR; affinity determination of nanobodies against human and murine CDH17 proteins; conditions: both partners purified
T1 construct: cadherin 17 (CDH17), human, domain 1–3; also called cadherin 17; CDH17 antigen; source: E. coli BL21(DE3), purified (Ni-NTA, gel filtration)
T1 sequence (Q12864 whole entry, looked up, the tested form may be a part): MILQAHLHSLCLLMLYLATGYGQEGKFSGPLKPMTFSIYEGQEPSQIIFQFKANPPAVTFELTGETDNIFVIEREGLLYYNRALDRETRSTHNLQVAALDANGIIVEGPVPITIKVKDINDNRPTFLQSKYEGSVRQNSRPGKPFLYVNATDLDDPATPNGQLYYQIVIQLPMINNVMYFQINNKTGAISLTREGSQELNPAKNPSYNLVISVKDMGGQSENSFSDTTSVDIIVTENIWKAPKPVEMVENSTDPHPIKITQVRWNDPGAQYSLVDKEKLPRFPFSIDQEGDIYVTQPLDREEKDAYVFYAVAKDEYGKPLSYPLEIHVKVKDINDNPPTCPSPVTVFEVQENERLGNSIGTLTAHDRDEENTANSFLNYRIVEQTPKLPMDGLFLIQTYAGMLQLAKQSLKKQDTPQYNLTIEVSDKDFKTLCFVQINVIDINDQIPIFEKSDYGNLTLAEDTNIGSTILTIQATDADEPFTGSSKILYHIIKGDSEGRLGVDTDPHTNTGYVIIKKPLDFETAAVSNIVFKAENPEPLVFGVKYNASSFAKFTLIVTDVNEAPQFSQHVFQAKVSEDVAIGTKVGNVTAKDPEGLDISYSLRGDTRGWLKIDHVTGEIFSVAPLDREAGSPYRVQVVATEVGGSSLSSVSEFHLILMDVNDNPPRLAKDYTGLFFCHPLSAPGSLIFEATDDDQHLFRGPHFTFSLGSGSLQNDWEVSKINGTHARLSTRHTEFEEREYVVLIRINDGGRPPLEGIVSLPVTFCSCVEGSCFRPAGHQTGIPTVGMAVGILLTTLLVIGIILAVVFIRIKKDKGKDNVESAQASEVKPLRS

[2] = target: T2, murine CDH17 protein fragment, domain 1–3 (Mus musculus, UniProt Q9R100); assay: as above; conditions: both partners purified
T2 construct: cadherin 17 (CDH17), mouse, domain 1–3; also called mouse CDH17; source: E. coli BL21(DE3), purified (Ni-NTA, gel filtration)
T2 sequence (Q9R100 whole entry, looked up, the tested form may be a part): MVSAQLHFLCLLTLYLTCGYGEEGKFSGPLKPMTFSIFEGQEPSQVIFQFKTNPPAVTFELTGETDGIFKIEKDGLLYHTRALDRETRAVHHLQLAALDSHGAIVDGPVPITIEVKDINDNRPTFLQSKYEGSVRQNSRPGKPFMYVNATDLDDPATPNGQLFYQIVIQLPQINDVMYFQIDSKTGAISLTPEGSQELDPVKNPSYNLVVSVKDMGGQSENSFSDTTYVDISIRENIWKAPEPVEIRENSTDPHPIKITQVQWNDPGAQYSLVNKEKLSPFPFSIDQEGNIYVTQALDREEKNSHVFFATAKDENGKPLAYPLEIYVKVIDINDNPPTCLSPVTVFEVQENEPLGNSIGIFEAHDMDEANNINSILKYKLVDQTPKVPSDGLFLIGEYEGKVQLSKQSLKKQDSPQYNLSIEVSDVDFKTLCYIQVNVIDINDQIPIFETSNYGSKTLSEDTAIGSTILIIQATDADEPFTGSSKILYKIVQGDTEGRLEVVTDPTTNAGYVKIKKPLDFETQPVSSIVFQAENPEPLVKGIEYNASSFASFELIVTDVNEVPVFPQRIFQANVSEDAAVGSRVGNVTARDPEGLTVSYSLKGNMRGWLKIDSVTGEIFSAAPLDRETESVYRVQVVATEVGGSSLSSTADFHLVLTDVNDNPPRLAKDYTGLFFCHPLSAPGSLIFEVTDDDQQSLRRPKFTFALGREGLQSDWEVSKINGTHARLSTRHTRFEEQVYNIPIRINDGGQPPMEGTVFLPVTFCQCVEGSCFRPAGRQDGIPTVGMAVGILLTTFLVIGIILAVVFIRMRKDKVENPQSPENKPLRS

Kd [1]: 60.1 nM | Kd [2]: 109 nM
B1: CDH17 nanobody Nb535 (VHH)
VHH: AVQLVESGGGLVQPGGSLRLSCAASGRTFSSNGMGWFRQAPGKGREFVAAISWNAGTTLYTDSVKGRFTISRDNAKNTVYLQMNSLKPEDTAIYYCAAREYYGGSYYPSREYEYGYWGQGTQVTVSS
notes: source: prokaryotic vector pColdII (TAKARA), purified (Ni-NTA); not shown: HA, C-terminal, kept

Kd [1]: 20.1 nM | Kd [2]: 32.5 nM
B2: CDH17 nanobody Nb289 (VHH)
VHH: B1 VHH with P14A, G16D, K43T
notes: as the VHH of m5 (A1) with one amino acid difference at position 44; also called Nb289 nanobody; source: prokaryotic vector pColdII (TAKARA), purified (Ni-NTA); not shown: HA, C-terminal, kept
